# Results reported in the DeepSol protein solubility set.
# Assay: soluble on expression in E. coli; label from the status in PepcDB or PDB records
row,Sequence,soluble on expression in E. coli
1,MPDEAVDGSTPDQGKKNNNGRGRGQGSGGNRGRGGSTANNNASRRPNPARQNQSSRQPTKVDMKKYERMISAAHTNFSDIPCGQKSIDCDICCKKNDVFGIGSCRHPVCAECVIRMRILGNSKTCPVCRSDIDILSFCTTDDDLANVPLSFKKTAHPDEDRYDIRFSNKIAGTKYEKYLAHVCKICKTDDGERLEFPSFMSLRQHMASRHEQSYCHICTDNLNLFSRERKTYTRDQLQRHMRSGDFDDKSFKGHPQCLFCEQKFLDEENRYRHLRKDHFFCQFCESDGTMTNVFFGKHDGLKKHYKEHHYICETEECREMGIAFANKFELDLHRANEHAERRNLIELGFGQRPSDPGRPIGRGRGLRSNEPPPPPVPRERIAVVQRQVETNPQSDPSQFTTVRSAQSKGVFTSTRSAYTSNQQEFPSLAPQAPPPNVRSSEFPRLNKANKPAAPAAPAVVDHFPSLGDSSSSSSAPPLRIKVPPLVKKRQPPPPAPAPQKAKASSARQNAPREEDDEYISRRDVPQAVVKVNNSLLRFDTVDDRVIPQNAKSNIQMIQRVDQKSAAESSSSAPSSGRLDFPALPAASAPMMPANSSWLNSKNSKIKSGVISSVSVPANYSKATQNKNKKKNKISVPKTEVWSSLGPPPDSAVASVPVETWQDIPLSKEAQLEKEKRERKEDWARKKAEIQARVAAASKDKSNEVDSDSEPEPARPITPPVHHSNIEKSESSEWTMANSKSGDSLKNAQLMANQKKNKKNKNNMEIPSANKVPSSQSSIVPSAPKVDSLIVEKVVAKTEPKNDENQDKPDLWNMPKLPSMTSMFSSFSLSGMFGMGTSYSDSSSMAAPPPGLENVVLTPPPGLGFPSPKSDDISFASAPILSHDDVKAKRERLEAEKQKNQKEAEKEDDGWVTTSKPKNNKKNNKK,not soluble
2,MMFWDSEVAKRLLAQGALRPLDVQFARFIGKQAVLAGHNAAESELLSVLSAALSAELGRGHICLPLCDAQGNRCDLAALIGLYGEASLQHSERWLAVDWQALLQASPLVGQQGEAVPLMFDGSRLYLHRYWHYEKQLAARLTELAAPQRLSPAELANLRERLNTLFARDYLGLWQALQQKPLSSVERIQLLNDRLDVVESDALDWPAIEAVVEKAQRAADLQALEQLIPLTHCLNWQKVAAAVALTRRFAVISGGPGTGKTTTVTKLLAALISQSMAQGKVPEIKLIAPTGKAAARLTESMGKAVSQLAIEPEIAAAIPSSSSTIHRLLGAIPGSAEFRHHTRNPLHLDLLVVDEASMVDLPLMVKLVEALPKHARLILLGDKDQLASVEAGAVLGDICTFLNQGYGHEQGAQLAELTGFATLRQTASKTVNPVADCLCMLQKSYRFDARSGIGQLAKAINSGSPARVEAVWQQSFSDIEHFALSGEHYQQLLQTLVQAYRPYLSLLNQPTEQFESTQQSMLTLAKSALDAFSRCRLLCALREGDFGVMGLNTRIERALNAHKLIKTQEEIWYHGRPIMVTRNDHGLGLYNGDIGLCMRDRDDDQGRLKVYFELPDGSIKAVLPSRVPQHETAYAMTIHKSQGSEFDLTLLILPPDYSPILTRELVYTGITRAKKQLKLYCDNKVLQRAIKVKTQRASGLVARLEQ,not soluble
3,MGSDKIHHHHHHIPFDESIQTVDDVNLAVIGIYDAFKSSALYSGNLTILPDLQADLVYGVNGNTNTFGDIWRWKDILATNTSIEAVYAGLYNVINRCNFMLDRVDRVRNNTTDDKDLYKLDQCCGEAYFARAIAYSELVKMFCKAYESDEDAANQLGVILTKHYQGNEEMKRASLKASYEFILEDLDRAAQLLALDKDYDPSVDGALFNNATYFNEYTVYALRARVALYMRKWDEAIKYSSKVIDSEYYLLASCTRTISSGVSYYKYMWTDDMSTEAIWKVGFTINSYGGKLGQIFLNYNHVNYRPDYVPANWVFGLYDSNDLRPETIFQTLQTGFSHGLSWPLLIKYAGNNEFIAANILHVSMPKVLRLSEQYLIRAEAYVQQAQPDYGRAGKDITTLRTARYSTYGGSTALSASNAMEVIEAERVKELYMEGFRLHDLKRWHKGFERKPQDQSLANGSSLKVEADDPLFVWPIPQHELDAPGSQVQPNESNK,not soluble
4,MGSDKIHHHHHHMRFGLDLGTTRTIAAAVDRGNYPIVTVEDSLGDTHDFIPSVVALKADRIVAGWDAIEVGQDHPSFVRSFKRLLSEPNVTEATPVYLGDHVHPLGAVLEAFAENVVTALRAFQTQLGDTSPIEVVIGVPANSHSAQRLLTMSAFSATGITVVGLVNEPSAAAFEYTHRHARTLNSKRQAIVVYDLGGGTFDSSLIRIDGTHHEVVSSIGISRLGGDDFDEILLQCALKAAGRQHDAFGKRAKNTLLDESRNAKEALVPQSRRLVLEIGDDDITVPVNKFYEAATPLVEKSLSIMEPLIGVDDLKDSDIAGIYLVGGGSSLPLVSRLLRERFGRRVHRSPFPSGSTAVGLAIAADPSSGFHLRDRVARGIGVFREHDSGRAVSFDPLIAPDTDSATVAKRCYKAVHNIGWFRFVEYSTVSEDGSPGDISLLSEIKIPFDSSITDVDATEISRFDGPEVEETITVNDNGVASISIKILGGVTVEHTI,not soluble
5,MGSDKIHHHHHHMGKFLVEREQMRYPVDVYTGKIQAYPEGKPSAIAKIQVDGELMLTELGLEGDEQAEKKVHGGPDRALCHYPREHYLYWAREFPEQAELFVAPAFGENLSTDGLTESNVYMGDIFRWGEALIQVSQPRSPCYKLNYHFDISDIAQLMQNTGKVGWLYSVIAPGKVSADAPLELVSRVSDVTVQEAAAIAWHMPFDDDQYHRLLSAAGLSKSWTRTMQKRRLSGKIEDFSRRLWGK,not soluble
6,MGHHHHHHSHMRCQESMSAVLTAEQALKLVGEMFVYHMPFNRALGLELERYEKAFAQLAFNNQPMMVGNWAQSILHGGVIASALDVAAGLVCVGSTLTRHETISEDELRQRLSRMGTIDLRVDYLRPGRGNRFTATSSLLRAGNKVAVARVELHNEDQLYIASATATYMVG,not soluble
7,MRGSHHHHHHGSIEGRSAVTCDDYYYGFGCNKFCRPRDDFFGHYACDQNGNKTCMEGWMGPECNRAICRQGCSPKHGSCKLPGDCRCQYGWQGLYCDKCIPHPGCVHGICNEPWQCLCETNWGGQLCDKDLNYCGTHQPCLNGGTCSNTGPDKYQCSCPEGYSGPNCEI,soluble
8,MGSDKIHHHHHHMATSTTSTPHDAVFKQFLCHPDTARDFLEIHLPSTLRQICNLNTLRLESGSFIEEDLRPHYSDILWSLETSEGEGYIYVVIEHQSTPDAHMAFRLMRYAMAAMQRHLEAGHKTLPLVVPMLFYHGNRSPYPFSLCWLDEFADPVMARKLYATAFPLVDITVVPDDEIMRHRRVALLELIQKHIRQRDLMGLVEQLVALLVKGYANDTQLQSLFNYMMHTGDAARFNTFIRQVAMRIPQHKEKIMTIADRLRQEGHRNGLQQGKQEGQRLAALRIARSMLNDGFDRDTVLRVTGLAPADLASENH,not soluble
9,MGSDKIHHHHHHAATLLASCNKDEEETEIQGFKVLEYRPAPGQFINEGFDCQTMEEANAYAEERFNKKLYVSLGSFGGYITVKMPKEIKNRKGYDFGIIGNPFSGSSEPGIVWVSEDANGNGKADDVWYELKGSDEPERDYSVTYHRPDAAGDIPWEDNKGESGIIKYLPQYHDQMYYPNWIKEDSYTLKGSMLEARTEQEGGIWKNKDFGKGYADNWGSDMAKDDNGNYRYNQFDLDDAVDQNGNPVTLERIHFVKVQSAILKNVESIGEVSTEVVGFKAF,not soluble
10,MKSTDQFQTHEVPWEEFIEALREEMKKQVGADIIDTVVCNLEDGFEVYTYVQGDLDFEYKEALERKYGSDAKTPNVLTIMLLASIYNTSEENIRLHADHKENPIVEVYVKQGNTL,not soluble
11,MTDKDLLHQKYYHGLLPREDIQEMLNKPGQFLLRTSEPVKGEKRQFVLSVVGEKNTSANHFVVREADHKVYVDKIGFPTIIELVNHYVSTKESFSTKDGTVKVVLKHAVERQKWELYHEDVELTKKLGEGAFGEVWKGKLLKILDANHQPVLVAVKTAKLESMTKEQIKEIMREARLMRNLDHINVVKFFGVAAGTEPLYVIMELADGGALDSALGKLHFPMIKKYELIYQAANGLAYIHEKNLMHRDVAARNCLYGGGQVKIADFGLSREGADYTMDLKKKVPIRWLPPETIRSGLYTPKTDVFAFGVMAWEITEDGKEPYPGFKVIEVAMKVLQGYRMPFSPEVNKEFAEFILTKCWPEKYEDRLPMKDICKWMKSSVKAQGGDTGPGGMMSKFGKKIKRSNSRESKSKSSTMTAAHGHDQGAMTAIEK,not soluble
12,GIVPYGGNLTVLDLVQKYIGQKKGVRHNTQANYDFVINIIKKEEFGTRRIDKIKLSDAKAWFIKLQADGRGYSSIHSVRGIVRPAFQMAVEDDLLRKNPFEFQLCTVVVNDSVTRQAITKEQEELFLEFIRNDDHYSKYYNGMFILFKTGLRISEFCGLTVKDIDLQERKINVNHQLQRTRGMQYVIEDTKTSSGTRMLPMTDEVYECFEQIVKNRKKVRVEPIVDGYSRFLFLDKKDMPEVALHWEKHFQWALGKYNRTHEEQMPKITPHVCRHTYCSNMAKAGMNPKALQYLMGHSDIGVTLNVYTHLGLIDAKEEMNRIAKLA,not soluble
13,MRYTVALTGGIGSGKSTVADAFADLGITVIDADIIARQMVEPGQPALNAIAEHFGSELIAADGTLRRRALRERIFSHPEEKAWLNALLHPLIQQETQRQFQQATSPYVLWVVPLLVENRLYQKANRVLVVDVTPETQLIRTMQRDDVTREHVEHILAAQATREARLAVADDVIDNNGAPDAIASDVARLHASYLKLASQFVSQEKP,not soluble
14,MKTLLYQKVYDQLKLSIQEGKIPVGSKMPTENELMAQFDVSSITLKKALELLKKDGYISRRPRVGTFVINDSPNSEQIETRKFDKPLFGCIMTNFDDTFGTILLSGMLEHSDSKAHIIVKKSLGDTEREEEILQEFIEMNVAGILILPASSKFVSPTLLELASQKFPLVVIDRTLEGLPISSISSDNTEAGRIITEKLFELGHKHIGMITSTSPVSTLDSRVNGFIRGHASFHTAFHSDYVFREIESVMPNSTVSIQTDIDKIARFLETHPEITALVATEYNIALLIKQACNKLGKSIPTNLSVVCFDHPDNFFDTSAFQFTHIKQAQYEIGVKAVDMLLNQVLKPDTINKETLPPLLVEGDSVEPLKSTSK,not soluble
15,MNVLDEPDRLHGAHVPIRRGSVRQLQWWEPTPAERVRVLAWTCDCQARFYELCQSGGMVYIRRTVQKDPEPEISETHRWPVQEGWRVWFDLLTGEVR,not soluble
16,MKSLQIYLFLFLSVFALGACIQNDIPYPYIKGEITAFEVEGQTGDAEINKNSRTIVVEVGDEVDIEELRITRFVVNEEATYSIDEQYCVSPNKFPSAGFSALADLPAGADTRVDFSKTVPVLLRTYQDYQWMITVKQTIERVVEVENQALPAIIDDKNHTVLVYVSQKQDLSAVKITKMILGGSKATITPDPSTVTNFRRPQEFVVNRFDKEELWTVDVVRTTSTGTTGSADVWATRATLNGGMKQGTTPRVEYRKKSEDTWTVVPETDVKLESGTTFSTTLTGLQDGTDYVWRVVVEEVPSTESGFTTEKIQEIPNLNFDTWSQNPTGTFKKSWYPNADGSNSFWATGNDGVTSSLAGSRDSSTRPEEKSVVNGKAAYMVTLGSVPLVGVAAGNLFIGDYKTNAQSPKDSPKFGRSFTGARPTGLKGWYKYTSKPVDYVGNPDNLKNDECHIYLRLWDDKDNEIGYGEFIGKETVTQYTQFRFDVTYTNKTAKPAKITIVATSSHYGGDFTGMKVTGSVGVGSELWVDEFELLYELEHHHHHH,soluble
17,MTKQVKIYHNPRCSKSRETLNLLKENGVEPEVVLYLETPADAATLRDLLKILGMNSARELMRQKEDLYKELNLADSSLSEEALIQAMVDNPKLMERPIVVANGKARIGRPPEQVLEIVG,not soluble
